We go through two molecules from publication PMC5036187 (Scientific Reports, 2016).

Where a chain is given by its changes, count along the chain named.

The target in this assay is T1, Glypican-3 (GPC3) on G1 cells (Homo sapiens, UniProt P51654).
T1 construct: also called GPC3+ cells (G1)
The assay can be described thus: flow cytometry on cells. The settings on record: one partner purified. A general note: In flow cytometry, cells or beads pass a laser one at a time.

T1 sequence (P51654 25-580): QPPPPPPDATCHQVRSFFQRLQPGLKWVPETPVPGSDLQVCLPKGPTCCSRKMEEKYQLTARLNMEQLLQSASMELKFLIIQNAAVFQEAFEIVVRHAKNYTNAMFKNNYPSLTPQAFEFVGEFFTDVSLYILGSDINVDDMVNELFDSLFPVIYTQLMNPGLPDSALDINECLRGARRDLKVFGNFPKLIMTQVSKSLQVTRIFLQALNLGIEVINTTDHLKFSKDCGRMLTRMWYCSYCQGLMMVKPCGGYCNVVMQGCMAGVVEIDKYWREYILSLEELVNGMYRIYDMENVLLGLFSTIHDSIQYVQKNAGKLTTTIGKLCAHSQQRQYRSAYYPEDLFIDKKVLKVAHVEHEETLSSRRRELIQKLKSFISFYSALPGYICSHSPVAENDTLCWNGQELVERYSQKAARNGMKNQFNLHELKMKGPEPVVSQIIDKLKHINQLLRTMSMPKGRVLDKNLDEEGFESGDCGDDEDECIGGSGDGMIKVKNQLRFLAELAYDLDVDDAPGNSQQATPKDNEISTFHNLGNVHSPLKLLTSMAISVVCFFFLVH

B1: humanized YP7 antibody, IgG format (human IgG1 kappa) (antibody, V domains shown)
VH: EVQLVESGGGLVQPGGSLRLSCAASGFTFNKNAMNWVRQAPGKGLEWVGRIRNKTNNYATYYADSVKARFTISRDDSKNSLYLQMNSLKTEDTAVYYCVAGNSFAYWGQGTLVTVS
VL: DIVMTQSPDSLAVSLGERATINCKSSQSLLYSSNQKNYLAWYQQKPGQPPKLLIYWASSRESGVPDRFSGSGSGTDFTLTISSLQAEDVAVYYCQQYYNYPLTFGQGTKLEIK
notes: also called hYP7; hYP7 IgG
For orientation: EC50 means the concentration at which the effect is half-maximal. Low values mean a more potent agent, high ones a less potent agent. B1: the EC50 turned out to be 0.7 nM.

B2: humanized YP9.1b antibody, IgG format (human IgG1 kappa) (antibody, V domains shown)
VH: B1 VH with T28N, K31T, I51V, A68D
VL: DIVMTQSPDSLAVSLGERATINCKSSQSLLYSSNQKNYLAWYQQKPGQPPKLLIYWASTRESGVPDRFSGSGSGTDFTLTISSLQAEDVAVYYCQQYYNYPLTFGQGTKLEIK
notes: also called hYP9.1b; hYP9.1b IgG
For B2, the EC50 stood at 0.4 nM.
